In PMC3430366 one finds stoichiometry N data, which are given here for two substances.

In experiment [1] the target is TDPX1 Cys83Ala (Leishmania major (Friedlin strain)). Description: SDS-PAGE after reduction or oxidation.
The target of experiment [2] is TDPX1 Cys35Ala (Leishmania major (Friedlin strain)). Description: SDS-PAGE after reduction or oxidation.

The stoichiometry N is a count of units in the complex or per binding partner. Turning to TDPX1 Cys83Ala (enzyme), the stoichiometry N in experiment [1] came to 2.

In experiment [2], TDPX1 Cys35Ala (enzyme) displayed a stoichiometry N of 2.
